The results in this text go back to the nanobody polyreactivity screen of Harvey et al. (2022).

The data set can be described thus: yeast display, Sf9 membrane polyspecificity reagent, FACS + sequencing; frameworks hold sequencing errors. In a few lines:
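Galactose-induced (36–48 hours) yeast carrying a synthetic nanobody display library were exposed to 10% biotinylated, detergent-solubilized Sf9 membrane reagent at 4 °C for 1 hour. FACS followed streptavidin microbead enrichment, using low and high (top ~1%) gates for expression (anti-HA) and reagent binding (streptavidin). Colony PCR, MiSeq 2 × 250 sequencing and CDR-length filtering followed. Labels for polyreactivity reflect the gate of origin.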
Take “QVQLVESGGGLVQAGGSLRLSCAASRSTFSDNAMGWYRQAPGKERELVAAISRSGGSTYYADSVKGRFTISRDTAKNTVYLQMNSLKPEDTAVYYCATKRVLTGYDSWGQGTQVTVSS”: the “polyreactivity (PSR sort gate)” value was “high polyreactivity”. In the case of “QVQLVESGGGLVQAGGSLRLSCAASRSTLSTYAMGWYRQAPGTERELVAAITWSDDSTYYADSVKGRFTISRDNAKNTVYLQMNSLKPEDTAVYYCAAEYISWFFGYDYWGQGTQVTVSS”, the “polyreactivity (PSR sort gate)” value is “high polyreactivity”.

On to “QVQLVESGGGLVQAGGSLRLSCAASRYIFSRNAMGWYRQAPGKERELVAAISLRGGSTYFADSVKGRFTISRDNAKNTVYLQMNSLKPEDTAVYYCAAPLFSGYDYWGQGTQVTVSS”, for which the “polyreactivity (PSR sort gate)” value is reported as “low polyreactivity”. For “QVQLVESGGGLVQAGGSLRLSCAASVFISSWYDMGWYRQAPGKERQLVAAIRSSGGNTYYADSVKGRFTISRDNAKNTVYLQMNSLKPEDTAVYYCAKDWKSEDGGYYWGQGTQVTVSS” the value was “high polyreactivity”; for “QVQLVESGGGLVQAGGSLRLSCAASVFTFSPNAMGWYRQAPGKERELVAAISKRGASTYYADSVKGRFTISRDNAKNTVYLQMNSLKPEDTAVYYCNVGASARKPYDYWGQGTQVTVSS”, “high polyreactivity”. As for “QVQLVESGGGLVQAGGSLRLSCAASVGTFRRYAKGWYREAPGKERELVAAISWTGGSTYYADSVKGRFTISRDNAKNNVYLQMNSLKPEDTAVYYCAAVGSSSSKGGYWGQGTQVTVSS”, the entry is “high polyreactivity”; as for “QVQLVESGGGLVQAGGSLRLSCAASVITFDVYAMGWYRPAPGKERELVAAISSVGGTYYADSVKGRFTISRDNAKNTVYLQMISLKPEDTAVYYCNTDGYVGSIRSGLYIYDYWGQGTQVTVSS”, “low polyreactivity”.

In the case of “QVQLVESGGGLVQAGGSLRLSCAASVITFNYNARGWYRQAPGKERELVARITWSGTRTYYADSVKGRFTMSRDNANNTVYLQMNSLKPEDTGVYYCNAGPYARYYWGQGTQVTVSS”, the “polyreactivity (PSR sort gate)” value is on record as “high polyreactivity”. “QVQLVESGGGLVQAGGSLRLSCAASVLIFEAYAMGWYRQAPAKERELVATINKSGGSTYYADSVKGRFTISRDNAKNTVYLQMNSLKPEDTAVYFCAAFFLLPSPWPSYWCWNGDYWGQRTQVTVSS”: the “polyreactivity (PSR sort gate)” value is recorded as “low polyreactivity”. For “QVQLVESGGGLVQAGGSLRLSCAASVLIFYDNIGWYRQAPGKERELVAAIDSGGNTYADSVKGRFTISRDNAKNTVYLQMNSLKPEDTAVYYCAVDGGEFSSYGYWGQGTQVTVSS” the value was “low polyreactivity”. Regarding “QVQLVESGGGLVQAGGSLRLSCAASVNTFWYYTMGWYRQAPGKERELVAAITGGGRTYYADSVKGRFTISRDNAKNSVYLQMNSLKPEDTAVYYCAKPWGSDFGSWGQGTQVTVSS”, the “polyreactivity (PSR sort gate)” value is recorded as “low polyreactivity”. As for “QVQLVESGGGLVQAGGSLRLSCAASVRIFEVYAMGWYRQAPGKERELVAAISSGGGSTYYADSVKGRFTISRDNAKNTVFLQMISLKPEDTAVYYCAADEVTKKNSFPRIMDYWGQGTQVTVSS”, the entry is “high polyreactivity”; as for “QVQLVESGGGLVQAGGSLRLSCAASVRIFRINTMGWYRQAPGKERELVAAIRTSGSSTYADSVKGRFTISRDNAKNTVYLQMNSLKPEDTAVYYCNTKYPGRGYYWGQGTQVTVSS”, “high polyreactivity”; as for “QVQLVESGGGLVQAGGSLRLSCAASVRTFYYYAMGWYRQAPGKERELVARISRGGSTNYADSVKGRFTISRDNAKNTVYLLMNSLKTEDTAVYYCAKSISYTGRYWGYDYWGQGTQVTVSS”, “high polyreactivity”. For “QVQLVESGGGLVQAGGSLRLSCAASVSIFKGYAMGWYRQAPGKERELVAAITGSDGSTYADSVKGRFTISRDNAKNTVYLQMNSLKPEDTAVYYCNTGGWTRYRPPGYEWNWYDYWGQGTQVTVSS” the value was “low polyreactivity”; for “QVQLVESGGGLVQAGGSLRLSCAASVSIIPHNTMGWYRQAPGKEMELVAAISRSGGSTYYADSVKGRFTISRDNGKKTVYLQMNSLKPEDTAVYYCSSDSYDVGHQVVSEERLYDYWGQGTQVTVSS”, “low polyreactivity”. For “QVQLVESGGGLVQAGGSLRLSCAASVSTFEANAMGWYRQAPGKERELVAVITWTGGSTYYADSVKGRFTISRDYAKNNVYLQMNSLKPEDTAVYYCAAKFHRFAWYSHYDYWGQGTQVTVSS”, the “polyreactivity (PSR sort gate)” value was “low polyreactivity”. Regarding “QVQLVESGGGLVQAGGSLRLSCAASVSTFTFNDMGWSRQAPGKERELVAAITSGGSTTYADSVKGRFTISRDNAKNTVYLQMNSLKPEDTAVYYCAADYVYFYFYGYASWGQGTQVTVSS”, the “polyreactivity (PSR sort gate)” value is “low polyreactivity”. For “QVQLVESGGGLVQAGGSLRLSCAASVSTIGTYAMGWYRQAPGKERELVAAISTGGSTYYADSVKGRFTISRANAKNTVHLQMNSLKPEDTAVYYCAALADYVRRASDYWGQGTQVTVSS” the value was “low polyreactivity”. For “QVQLVESGGGLVQAGGSLRLSCAASVYIFVRNALGWYRQAPGKERELVAAISGSGGSTYYADSVKGRFTISRDNAKNTVSLQMNSLIPEDTAVDYCAADYATVTWRGIAYDYWGQGTQVTVSS” the value was “low polyreactivity”; for “QVQLVESGGGLVQAGGSLRLSCAASVYTFPSYVMGWYRQAPGKERELVAAISSGSRTYYADSVKGRFTISRDNAKNTVYLQMNSLKPEDTAVYYCNARGFPGKFGYWGPGTQVTVSS”, “high polyreactivity”; for “QVQLVESGGGLVQAGGSLRLSCAASVYTFYKYAMGWYRQAPGKERELVAAISSSGGSTYYADSVKGRFTISRDNAKNTVYLQMNSLKPEDTAVYYCAAYVYSNDYDYWGQGTQVTVSS”, “high polyreactivity”. As for “QVQLVESGGGLVQAGGSLRLSCAATGFFFGPYVMGWYRQATGKERELVAVITWTGGSTSYADSVKGRFTISRDNAKNTVYLQMNSLKREDTAVYYCAARTHQYRSRSYYYWGQGTQVTVSS”, the entry is “high polyreactivity”. Turning to “QVQLVESGGGLVQAGGSLRLSCAATGFIFTDNVMGWYRQAPGKERELVAAISRRGGSTYYADSVKGRFTISRDNAKNTVYLQMNSLKPEDTAVYYCNVARQSYLLDYWGQGSQVTVSS”, the “polyreactivity (PSR sort gate)” value is “high polyreactivity”. For “QVQLVESGGGLVQAGGSLRLSCAATGFTFCANAMGWYRQAPGKERELVAAISWTGVNTYYADSVKGRFTISRDNAKNTVYLQMNSLKPEDTAVYSCAAEQWSTGYYYWGQGTQVTVSS”, the “polyreactivity (PSR sort gate)” value is listed as “high polyreactivity”. For “QVQLVESGGGLVQAGGSLRLSCAATGFTFIHYGMGWYRQAPGKERELVAAITWRGDRTYADSVKGRFTISRDNANNTVYLQMNSLKPEDTAVYYCAAVSANQDFDYWGQGTQVTVSS” the value was “high polyreactivity”; for “QVQLVESGGGLVQAGGSLRLSCAATGFTFTGNAMGWYRQAPGKQRELVAAINTGTGGSTYYADSVKGRFTISRDNAKNTVYLQMNSLKPVDTAVYYPIGVGGDYDYWGQGTQVTVSS”, “low polyreactivity”; for “QVQLVESGGGLVQAGGSLRLSCAATGFTFTLYAMGWYRQAPGKERALVAAITRLGTSTYYADSVKGRFTISRDNAKNTVYLQMNNLKPEDTAVYYCAARGGGGQRYDYWGHGTQVTVSS”, “high polyreactivity”.

Take “QVQLVESGGGLVQAGGSLRLSCAATGFTFYGYAMGWYRQAPGKERELVAAISRRSSSTYYADSVKGRFTISRDNAKNTVYLQMNSLKPEDTAVCYCNTVFQRSGYAAGVDYWGQGTQVTVSS”: the “polyreactivity (PSR sort gate)” value was “high polyreactivity”. For “QVQLVESGGGLVQAGGSLRLSCAATGFTSYLYTMGGYRQAAGKERELVAAISNSGGNTYYADSVKGRFTISRDNANNTVYLQMNSLKPEDTAVYYCAARLFAAKYRYGYWGQGTQVTVSS” the value was “high polyreactivity”; for “QVQLVESGGGLVQAGGSLRLSCAATGIISQYYAMGWYRQQPGKESELDAAISRSGGSTFYADSVKGRFTISRDNAQNTVYLQMNSLKPEDTAVYYCNAESRFRPYTSRYDYWGQGTQVTVSS”, “high polyreactivity”; for “QVQLVESGGGLVQAGGSLRLSCAATGIKFDGYAMGWYRQEPRKERELVAGITIGDITYYADSVKGRFTISRDNAKNTVYLQMNSLKPEDTAVYYCADDCYYYQTAYDYWGQGTQVTVSS”, “low polyreactivity”. Turning to “QVQLVESGGGLVQAGGSLRLSCAATGINITSNTMGWYRLAPGKEREFVASINWNGSSTYADSVKGRFTISRDNAKNTVYLQMNSLKPEDTAVYYCNADYNRNSVQFSLYDYWGQGTQVTVSS”, the “polyreactivity (PSR sort gate)” value is “low polyreactivity”. For “QVQLVESGGGLVQAGGSLRLSCAATGITFVYNAMGWYRQAPGKERELVAAISWSGTSTYYADSVKGRFTISRDNAKNTVYLQMNSLKPEDTAVYDCSAQSGYPPYGYYYWGQGTQVTVSS”, the “polyreactivity (PSR sort gate)” value is given as “low polyreactivity”.

For the sequence “QVQLVESGGGLVQAGGSLRLSCAATGITFYPNGMGWYRPAPGKEREFVAAITSSGGSTYYADSVKGRFTISRDNAKNSVYLQMNSLKPEDTAVYYCAAQYYPISYYGYGYWGQGTQVTVSS”, the “polyreactivity (PSR sort gate)” value was “low polyreactivity”. For “QVQLVESGGGLVQAGGSLRLSCAATGLTFSTNTMGWYRQAPGKEREFVAAITARGGRTYYADSVKGRFTISRDNAKNTVYLQMNCLKPEDTAVYYCAANAYTYYARIGFDYWGQGTQVTVSS” the value was “high polyreactivity”. As for “QVQLVESGGGLVQAGGSLRLSCAATGRIFIAYAMGWYRQAPGKEREFVAAISSGGGSTYYADSVKGRFTISRDNAKNTVYLQMNSLKPEDTAVYYCGAWTLYWSHTTWSYDYWGQGTQGTVSS”, the entry is “low polyreactivity”; as for “QVQLVESGGGLVQAGGSLRLSCAATGRIFKTYAMGWYRQAPGKERELVAAISWTVVSTHYADSVKGRFTISRDNAKNTVYLQMNSLKPEDTAVYYCNADTPLRHRTWNRKVTDFEYDYWGQGTQVTVSS”, “low polyreactivity”; as for “QVQLVESGGGLVQAGGSLRLSCAATGRIFRVYAMGWYRQAPGKVRELVAAISSGGSTNYADSVKGGFTISRDNAKNTVYLQMKSLKPEDTAVYYCAADYWYRLFWYYGAPLDYWGQGTQVTVSS”, “low polyreactivity”.

As to “QVQLVESGGGLVQAGGSLRLSCAATGRIFTYYAMGWYRQAPGKERELVAGISGSGTSTYYADSVKARFTISRDNAKNTVDLQINSLKPEDTAVYYSAADVFRDDVWLDYWGQGTQVTVSS”, the “polyreactivity (PSR sort gate)” value is listed as “low polyreactivity”. As for “QVQLVESGGGLVQAGGSLRLSCAATGRIFYSNAMGWYRQAPGKERELVAVIRRTGSTYYADSVKGRFTISRDNAKHTVYLQMNSLKPEDTAVYYCATRIPYGRGGNRYDYWGQGTQVTVSS”, the “polyreactivity (PSR sort gate)” value is “low polyreactivity”.
